According to patent US20230374151A1 (GlaxoSmithKline, published 2023):
Residue numbers refer to the chain shown, from its start. Values joined by “and” are separate entries in the source; they are usually repeats but may differ in a detail not shown here. Identical values can stand only once.

T1: MUC1 peptide (non-glycosylated), biotinylated (N-terminal Biotin-PEG2; C-terminal amide)
T1 construct: also called 36-4; 7-36-4
T1 peptide: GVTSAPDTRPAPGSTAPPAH

B1: humanised anti-TnMUC1 scFv protein 11P6 (89A), L0-H5 (scFv)
scFv: DIVMTQSPDSLAVSLGERATINCKSSQSLLNSGDQKNYLTWYQQKPGQPPKLLIYWASTRESGVPDRFSGSGSGTDFTLTISSLQAEDVAVYYCQNDYSYPLTFGQGTKLEIKGGGGSGGGGSGGGGSGGGGSQVQLVQSGAEVKKPGSSVKVSCKASGYTFTDHAIHWVRQAPGQGLEWIGHFSPGNTDIKYNDKFKGRATLTVDRSTSTAYMELSSLRSEDTAVYFCKTSTFFFDYWGQGTTVTVSSAAAHHHHHH
notes: Supernatant of construct 6D6 in the Octet assay; purified 11P6 elsewhere; also called 6D6
B2: humanised anti-TnMUC1 scFv protein 16P4 (82A), L0-H3 (scFv)
scFv: B1 scFv with I181M, A201V, L203I, V205A, R207K, F228Y
notes: Supernatant of construct 6D4 in the Octet assay; purified 16P4 elsewhere. scFv of CAR MB021; also called 6D4
B3: humanised anti-TnMUC1 scFv protein 13P18 (19A), L2-H5 (scFv)
scFv: B1 scFv with Y55F
notes: Supernatant of construct 6D18 in the Octet assay; purified 13P18 elsewhere. scFv of CAR MB025; also called 6D18
B4: humanised anti-TnMUC1 scFv protein 13P24 (77A), L3-H5 (scFv)
scFv: B1 scFv with D1E, I2L, Y55F
notes: Two purification lots (13P24, 28P24); also called 28P24; 6D24
B5: humanised anti-TnMUC1 scFv protein 9P1 (88A), VL-VH humanised control (scFv)
scFv: B1 scFv with L110V, P147T, G177A, I181M, A201V, T209M, V226M, F228Y, T244M
notes: Control scFv designed from a humanised antibody of WO2015/159076 (10D2 is said to come from Ab2, so 10D1 by implication from Ab1); Neat supernatant of construct 10D1 in the Octet assay; purified protein 9P1 in Biacore and flow cytometry; also called 10D1
B6: humanised anti-TnMUC1 scFv protein 11P12 (94A), L1-H5 (scFv)
scFv: B1 scFv with D1E, I2L
notes: Supernatant of construct 6D12 in the Octet assay; purified 11P12 elsewhere; also called 6D12
B7: humanised anti-TnMUC1 scFv H3-L3, VH-VL orientation (construct 6D25) (scFv)
scFv: QVQLVQSGAEVKKPGSSVKVSCKASGYTFTDHAIHWVRQAPGQGLEWMGHFSPGNTDIKYNDKFKGRVTITADKSTSTAYMELSSLRSEDTAVYYCKTSTFFFDYWGQGTTVTVSSGGGGSGGGGSGGGGSGGGGSELVMTQSPDSLAVSLGERATINCKSSQSLLNSGDQKNYLTWYQQKPGQPPKLLIFWASTRESGVPDRFSGSGSGTDFTLTISSLQAEDVAVYYCQNDYSYPLTFGQGTKLEIKAAAHHHHHHH
B8: humanised anti-TnMUC1 scFv L2-H1 (construct 6D14) (scFv)
scFv: B1 scFv with Y55F, I181M, A201V, L203I, V205A, R207K, F228Y, K230A, T231R
B9: humanised anti-TnMUC1 scFv L0-H1 (construct 6D2) (scFv)
scFv: B1 scFv with I181M, A201V, L203I, V205A, R207K, F228Y, K230A, T231R
B10: humanised anti-TnMUC1 scFv L3-H1 (construct 6D20) (scFv)
scFv: ELVMTQSPDSLAVSLGERATINCKSSQSLLNSGDQKNYLTWYQQKPGQPPKLLIFWASTRESGVPDRFSGSGSGTDFTLTISSLQAEDVAVYYCQNDYSYPLTFGQGTKLEIKGGGGSGGGGSGGGGSGGGGSQVQLVQSGAEVKKPGSSVKVSCKASGYTFTDHAIHWVRQAPGQGLEWMGHFSPGNTDIKYNDKFKGRVTITADKSTSTAYMELSSLRSEDTAVYYCARSTFFFDYWGQGTTVTVSSAAAHHHHHH
B11: humanised anti-TnMUC1 scFv L0-H2 (construct 6D3) (scFv)
scFv: B1 scFv with F228Y, K230A, T231R
B12: humanised anti-TnMUC1 scFv L3-H4 (construct 6D23) (scFv)
scFv: B10 scFv with Y228F
B13: humanised anti-TnMUC1 scFv L3-H2 (construct 6D21) (scFv)
scFv: B10 scFv with M181I, V201A, I203L, A205V, K207R
B14: humanised anti-TnMUC1 scFv L2-H4 (construct 6D17) (scFv)
scFv: B10 scFv with E1D, L2I, Y228F
B15: humanised anti-TnMUC1 scFv L0-H4 (construct 6D5) (scFv)
scFv: B10 scFv with E1D, L2I, F55Y, Y228F
B16: humanised anti-TnMUC1 scFv L1-H2 (construct 6D9) (scFv)
scFv: B1 scFv with D1E, I2L, F228Y, K230A, T231R
B17: humanised anti-TnMUC1 scFv L2-H2 (construct 6D15) (scFv)
scFv: B1 scFv with Y55F, F228Y, K230A, T231R
B18: humanised anti-TnMUC1 scFv L1-H1 (construct 6D8) (scFv)
scFv: B10 scFv with F55Y
B19: humanised anti-TnMUC1 scFv L3-H3 (construct 6D22) (scFv)
scFv: B10 scFv with A230K, R231T

Target: T2, TnMUC1 peptide (fully glycosylated), biotinylated
T2 construct: Two batches (36-2 and 65-1) of the same peptide; also called 36-2; 7-36-2
Experiment: SPR (Biacore T200): biotinylated TnMUC1 peptide batch 65-1 captured on CAP chip, scFv as analyte, 1:1 fit, average
Procedure: (§1) Biotin CAPture Reagent was captured onto the active and reference flow cells for 300 seconds at 2 μl/min. The biotinylated peptides were diluted in BIAcore Running Buffer (as described above) and captured onto the active flow cell only, at a flow rate of 10 μl/min to obtain the capture level calculated in the equation detailed above.
(§2) The humanised anti-TnMUC1 scFv proteins were passed over the reference and active flow cells at 500, 125, 31.25, 7.8, 1.9, 0 nM for binding to TnMUC1 and MUC1 peptides with a 300 second association followed by a 900 seconds dissociation with BIAcore Running Buffer at a flow rate of 30 μl/min.
(§3) BIAcore T200 Evaluation Software v3.0 was used to analyse the data. The data obtained has been fitted to a 1:1 binding model with the Rmax parameter set to local. As this is a capture experiment, a local Rmax parameter would be truly reflective as the protein is recaptured every time and theoretically surface is slightly different at each recapture, possibly producing slightly different capture each time. Kinetic Parameters (KD, kd and kₐ) were calculated for all the humanised anti-TnMUC1 scFv proteins.

Kd [nM] | koff [s⁻¹] | kon [M⁻¹ s⁻¹] | Binder
48.6 | 0.00136 | 28000 | B1
208 | 0.00698 | 33900 | B2
40.7 | 0.00127 |  | B3

Target: T3, TnMUC1 peptide 1 (partially glycosylated), biotinylated
T3 construct: also called 96-1; 32A
Experiment: SPR (Biacore T200): biotinylated TnMUC1 peptide 1 (96-1) captured on CAP chip, scFv as analyte, 1:1 fit, average
Procedure: as §1, §2, §3

Kd [nM] | koff [s⁻¹] | kon [M⁻¹ s⁻¹] | Binder
60.3 | 0.00135 | 22500 | B1
250 | 0.00708 | 28500 | B2
51.1 | 0.00131 |  | B3

Target: T2, TnMUC1 peptide (fully glycosylated), …
Experiment: SPR (Biacore T200), peptide 36-2 on CAP chip, scFv as analyte, 1:1 fit; average, restated in nM
Procedure: as §1, §2, §3

Kd [nM] | Binder
26.7 | B1
196 | B2
70.9 | B3
46.4 | B4
54 | B6

Binder | Kd [nM]
B5 | 23

Target: T4, STnMUC1 peptide, biotinylated
T4 construct: also called STn peptide; 35-1
Experiment: SPR (Biacore T200), STnMUC1 peptide on CAP chip, scFv as analyte
Procedure: The CAP chip (from the Biotin CAPture kit) was docked into BIAcore T200 instrument to hydrate overnight, as per manufacturer instructions. When the chip is docked (for the first time or after storage), the surface of the sensor chip needs to be conditioned with 3×1 minute injections of Regeneration Solution (from the Biotin CAPture kit). Regeneration Solution was prepared by mixing 3 parts of Regeneration Stock 1 (8M Guanidine-HCl) with 1-part Regeneration Stock 2 (1M NaOH). Both the reference and active flow cells of the sensor chip were conditioned with 3×60 second injections of Regeneration Solution at a flow rate of 10 μl/min.
as §1

fold lower affinity than the murine 5E5 scFv protein [fold] | Binder
~10 | B2
~10 | B3
~10 | B6

Target: T1, MUC1 peptide (non-glycosylated), …
Experiment: SPR (Biacore T200), biotinylated peptide on CAP chip, scFv as analyte

binding result | Binder
no binding (tested: 500 nM) | B1
no binding (tested: 500 nM) | B2
no binding (tested: 500 nM) | B3
no binding (tested: 500 nM) | B4
no binding (tested: 500 nM) | B6

Target: T4, STnMUC1 peptide, biotinylated
Experiment: SPR (Biacore T200): biotinylated STnMUC1 peptide (35-1) captured on CAP chip, scFv as analyte

Kd [nM] | Binder
199 | B1
536 | B2
196 | B3

Target: T2, TnMUC1 peptide (fully glycosylated), …
Experiment: SPR (Biacore T200), peptide 36-2 on CAP chip, scFv as analyte, 1:1 fit; single run
Procedure: as §1, §2, §3

Kd | koff | kon | Binder
25.7 nM and 27.6 nM | 0.00138 s⁻¹ and 0.00135 s⁻¹ | 53800 M⁻¹ s⁻¹ and 49100 M⁻¹ s⁻¹ | B1
195 nM and 197 nM | 0.00694 s⁻¹ and 0.0068 s⁻¹ | 35600 M⁻¹ s⁻¹ and 34500 M⁻¹ s⁻¹ | B2
67.6 nM and 74.2 nM | 0.00131 s⁻¹ and 0.00129 s⁻¹ | 19400 M⁻¹ s⁻¹ and 17400 M⁻¹ s⁻¹ | B3
46.4 nM | 0.00133 s⁻¹ | 28700 M⁻¹ s⁻¹ | B4
53.6 nM and 55.2 nM | 0.00158 s⁻¹ and 0.00151 s⁻¹ | 29400 M⁻¹ s⁻¹ and 27300 M⁻¹ s⁻¹ | B6

Binder | Kd | koff | kon
B5 | 22.8 nM and 23.3 nM | 0.00157 s⁻¹ and 0.00153 s⁻¹ | 68800 M⁻¹ s⁻¹ and 65900 M⁻¹ s⁻¹

Target: T2, TnMUC1 peptide (fully glycosylated), …
Experiment: SPR (Biacore T200), peptide 36-2 on CAP chip, scFv as analyte, 1:1 fit; average
Procedure: as §1, §2, §3

Kd [nM] | koff [s⁻¹] | kon [M⁻¹ s⁻¹] | Binder
26.7 | 0.00137 | 51500 | B1
196 | 0.00687 | 35100 | B2
70.9 | 0.0013 | 18400 | B3
46.4 | 0.00133 | 28700 | B4
54.4 | 0.00155 | 28400 | B6

Binder | Kd [nM] | koff [s⁻¹] | kon [M⁻¹ s⁻¹]
B5 | 23 | 0.00156 | 67800

Target: T4, STnMUC1 peptide, biotinylated
Experiment: SPR (Biacore T200): biotinylated STnMUC1 peptide (35-1) captured on CAP chip, scFv as analyte, 1:1 fit, average

Kd [nM] | koff [s⁻¹] | kon [M⁻¹ s⁻¹] | Binder
199 | 0.000435 | 2200 | B1
536 | 0.00122 | 2290 | B2
196 | 0.000423 | 2160 | B3

Target: T1, MUC1 peptide (non-glycosylated), …
Experiment: Octet BLI, biotinylated peptide on streptavidin sensors
Procedure: Biotinylated MUC1 peptide (7-36-4) and TnMUC1 peptide (7-36-2) were diluted to 10 μg/ml in Octet Running Buffer (1×PBSF) and loaded onto Octet SA (streptavidin) sensors. The positive control proteins were tested in the Octet assay at a single concentration of 500 nM. All humanised anti-Tn MUC1 scFv expression supernatants were assayed neat.
Data was analysed using the data acquisition software fortéBIO version 8.0.2.5 and the data analysis software fortéBIO version 8.0.2.3.

binding result | Binder
no binding (tested: neat supernatant) | B7
no binding (tested: neat supernatant) | B8
no binding (tested: neat supernatant) | B9
no binding (tested: neat supernatant) | B10
no binding (tested: neat supernatant) | B11
no binding (tested: neat supernatant) | B12
no binding (tested: neat supernatant) | B13
no binding (tested: neat supernatant) | B14
no binding (tested: neat supernatant) | B15
no binding (tested: neat supernatant) | B16
no binding (tested: neat supernatant) | B17
no binding (tested: neat supernatant) | B18
no binding (tested: neat supernatant) | B19

Binder | binding result
B5 | no binding (tested: neat supernatant)
